Test system: T1, fluorogenic substrate (R&D systems, cat no. ES007), peptide YVADAPK between Mca and Dnp groups
T1 sequence: YVADAPK

## commercial ACE-2 from Sino Biological (cat no 10108H08H20)
  enzymatic activity assay using a fluorogenic substrate (fluorescence, excitation 320 nm, emission 405 nm): All four samples appeared to have similar levels of activity

Reference: US20230000974A1
